Experimental data reported in PMC5824745.

What was measured:
[1] = target: eukaryotic Initiation Factor 4E (eIF4E), wild type (mouse (endogenous in forebrain)) (UniProt P63073); test: pull-down; cap-column pulldown: 500 ug forebrain lysate protein with 50 ul m7GDP agarose in buffer C (50 mM MOPS-KOH pH 7.4, 100 mM NaCl, 50 mM NaF, 0.5 mM EDTA, 0.5 mM EGTA, 0.1 mM GTP), 90 min at 4 C; eIF4E held by its ligand m7GDP; cap-bound fraction immunoblotted and quantified, normalised to input
eIF4G = eIF4G (UniProt Q6NZJ6); test: m7GDP-agarose cap pull-down, immunoblot; conditions: reference: wild-type mouse forebrain; sites S209
rpL13a = rpL13a (UniProt P19253); test: m7GDP-agarose cap pull-down, immunoblot; conditions: reference: wild-type mouse forebrain; sites S209
Gapdh = Gapdh (UniProt P16858); test: m7GDP-agarose cap pull-down, immunoblot; conditions: reference: wild-type mouse forebrain; sites S209

Gapdh, P16858 1-333 (natural protein; other documents disagree on this pair), sequence (P16858 whole entry): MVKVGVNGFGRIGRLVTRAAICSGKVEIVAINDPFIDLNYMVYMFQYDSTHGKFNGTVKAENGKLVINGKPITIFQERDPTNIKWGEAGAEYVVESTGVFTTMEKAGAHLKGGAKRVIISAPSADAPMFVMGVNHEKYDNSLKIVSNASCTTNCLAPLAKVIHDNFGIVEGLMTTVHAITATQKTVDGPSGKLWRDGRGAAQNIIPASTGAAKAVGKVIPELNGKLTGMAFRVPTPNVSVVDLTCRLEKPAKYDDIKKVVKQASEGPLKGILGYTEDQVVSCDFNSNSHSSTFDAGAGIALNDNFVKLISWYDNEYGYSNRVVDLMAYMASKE

| cap-bound protein (arbitrary units, normalised to input) (arbitrary units) [1] | other: cap-bound band intensity normalized to input (eIF4G) | other: cap-bound band intensity normalized to input (rpL13a) | other: cap-bound band intensity normalized to input (Gapdh) | Substance |
| --- | --- | --- | --- | --- |
| 0.998 |  |  |  | Gapdh, P16858 1-333 (natural protein; other documents disagree on this pair) |
|  | same; reference 1.002 ± 0.149 | weaker; reference 0.9975 ± 0.1723 | same; reference 0.998 ± 0.254 | eIF4E (from UniProt P63073) 4Eki (S209A knock-in) forebrain |
